In article PMC10786891, “Massively parallel profiling of RNA-targeting CRISPR-Cas13d”:

T1: EsCas13d, nuclease-dead (Eubacterium siraeum, UniProt B0MS50, R295A;H300A;R849A;H854A)
T1 sequence: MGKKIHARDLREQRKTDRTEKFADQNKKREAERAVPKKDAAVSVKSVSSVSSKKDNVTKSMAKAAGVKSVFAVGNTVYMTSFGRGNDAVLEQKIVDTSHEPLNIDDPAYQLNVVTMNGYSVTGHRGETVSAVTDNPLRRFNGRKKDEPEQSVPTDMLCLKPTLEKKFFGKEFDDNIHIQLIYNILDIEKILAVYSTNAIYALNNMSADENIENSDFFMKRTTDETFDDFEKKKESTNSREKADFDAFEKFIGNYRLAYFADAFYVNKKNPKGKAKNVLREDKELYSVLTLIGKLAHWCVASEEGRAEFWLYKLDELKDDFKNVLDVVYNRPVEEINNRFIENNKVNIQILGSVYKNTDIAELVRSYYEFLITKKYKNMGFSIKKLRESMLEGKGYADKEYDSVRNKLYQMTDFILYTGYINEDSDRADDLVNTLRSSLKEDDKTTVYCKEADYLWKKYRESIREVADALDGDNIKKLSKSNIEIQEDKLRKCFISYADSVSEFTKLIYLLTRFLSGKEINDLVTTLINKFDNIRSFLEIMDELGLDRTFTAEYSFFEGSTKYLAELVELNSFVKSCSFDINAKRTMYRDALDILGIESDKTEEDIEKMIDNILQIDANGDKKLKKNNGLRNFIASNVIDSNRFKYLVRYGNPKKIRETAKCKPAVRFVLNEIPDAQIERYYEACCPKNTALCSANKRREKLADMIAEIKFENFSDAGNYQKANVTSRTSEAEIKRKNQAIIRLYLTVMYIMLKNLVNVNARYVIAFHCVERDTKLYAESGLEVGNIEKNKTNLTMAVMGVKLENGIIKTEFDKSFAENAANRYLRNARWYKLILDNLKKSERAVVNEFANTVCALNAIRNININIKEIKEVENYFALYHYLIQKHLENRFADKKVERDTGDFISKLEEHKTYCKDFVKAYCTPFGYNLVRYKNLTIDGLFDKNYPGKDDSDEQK

B1: target 1 insG 3' of 11,insA 3' of 5 (mixed)
RNA 1: CACCCGUGCAAAAAUGCAGGGGUCUAAAACUGAGCGGAUAACCUCUCUAUGG
RNA 2: GGGAAUGGAUCCACAUCUACGAAUUCGUACCAUAGAGAGGUGUAUCCGACUCACCGAGAUCGGAAGAGCACACGU
B2: target 1 insU 3' of 22,insU 3' of 20 (mixed)
RNA 1: CACCCGUGCAAAAAUGCAGGGGUCUAAAACUGAGCGGAUAACCUCUCUAUGG
RNA 2: GGGAAUGGAUCCACAUCUACGAAUUCGUACUCAUUAGAGAGGUUAUCCGCUCACCGAGAUCGGAAGAGCACACGU
B3: target 1 insU 3' of 21,insA 3' of 12 (mixed)
RNA 1: CACCCGUGCAAAAAUGCAGGGGUCUAAAACUGAGCGGAUAACCUCUCUAUGG
RNA 2: GGGAAUGGAUCCACAUCUACGAAUUCGUACCUAUAGAGAGGAUUAUCCGCUCACCGAGAUCGGAAGAGCACACGU
B4: target 1 insU 3' of 14,insC 3' of 9 (mixed)
RNA 1: CACCCGUGCAAAAAUGCAGGGGUCUAAAACUGAGCGGAUAACCUCUCUAUGG
RNA 2: GGGAAUGGAUCCACAUCUACGAAUUCGUACCAUAGAGAUGGUUACUCCGCUCACCGAGAUCGGAAGAGCACACGU
B5: target 1 insU 3' of 4,insU 3' of 4 (mixed)
RNA 1: CACCCGUGCAAAAAUGCAGGGGUCUAAAACUGAGCGGAUAACCUCUCUAUGG
RNA 2: GGGAAUGGAUCCACAUCUACGAAUUCGUACCAUAGAGAGGUUAUCCGCUUUCACCGAGAUCGGAAGAGCACACGU
B6: target 1 insA 3' of 10,insA 3' of 10 (mixed)
RNA 1: CACCCGUGCAAAAAUGCAGGGGUCUAAAACUGAGCGGAUAACCUCUCUAUGG
RNA 2: GGGAAUGGAUCCACAUCUACGAAUUCGUACCAUAGAGAGGUUAAAUCCGCUCACCGAGAUCGGAAGAGCACACGU
B7: target 1 U8C,U10G (mixed)
RNA 1: CACCCGUGCAAAAAUGCAGGGGUCUAAAACUGAGCGGAUAACCUCUCUAUGG
RNA 2: GGGAAUGGAUCCACAUCUACGAAUUCGUACCAUAGAGAGGUGACCCGCUCACCGAGAUCGGAAGAGCACACGU
B8: target 1 insG 3' of 3,insG 3' of 3 (mixed)
RNA 1: CACCCGUGCAAAAAUGCAGGGGUCUAAAACUGAGCGGAUAACCUCUCUAUGG
RNA 2: GGGAAUGGAUCCACAUCUACGAAUUCGUACCAUAGAGAGGUUAUCCGCUGGCACCGAGAUCGGAAGAGCACACGU
B9: target 1 insG 3' of 11,insU 3' of 6 (mixed)
RNA 1: CACCCGUGCAAAAAUGCAGGGGUCUAAAACUGAGCGGAUAACCUCUCUAUGG
RNA 2: GGGAAUGGAUCCACAUCUACGAAUUCGUACCAUAGAGAGGUGUAUCCUGCUCACCGAGAUCGGAAGAGCACACGU
B10: target 1 U11G,G15A (mixed)
RNA 1: CACCCGUGCAAAAAUGCAGGGGUCUAAAACUGAGCGGAUAACCUCUCUAUGG
RNA 2: GGGAAUGGAUCCACAUCUACGAAUUCGUACCAUAGAAAGGGUAUCCGCUCACCGAGAUCGGAAGAGCACACGU
B11: target 1 insC 3' of 15,insA 3' of 7 (mixed)
RNA 1: CACCCGUGCAAAAAUGCAGGGGUCUAAAACUGAGCGGAUAACCUCUCUAUGG
RNA 2: GGGAAUGGAUCCACAUCUACGAAUUCGUACCAUAGAGCAGGUUAUCACGCUCACCGAGAUCGGAAGAGCACACGU
B12: target 1 A1C,U8G (mixed)
RNA 1: CACCCGUGCAAAAAUGCAGGGGUCUAAAACUGAGCGGAUAACCUCUCUAUGG
RNA 2: GGGAAUGGAUCCACAUCUACGAAUUCGUACCAUAGAGAGGUUAGCCGCUCCCCGAGAUCGGAAGAGCACACGU
B13: target 1 U10A,G17U (mixed)
RNA 1: CACCCGUGCAAAAAUGCAGGGGUCUAAAACUGAGCGGAUAACCUCUCUAUGG
RNA 2: GGGAAUGGAUCCACAUCUACGAAUUCGUACCAUAUAGAGGUAAUCCGCUCACCGAGAUCGGAAGAGCACACGU
B14: target 1 insG 3' of 14,insU 3' of 5 (mixed)
RNA 1: CACCCGUGCAAAAAUGCAGGGGUCUAAAACUGAGCGGAUAACCUCUCUAUGG
RNA 2: GGGAAUGGAUCCACAUCUACGAAUUCGUACCAUAGAGAGGGUUAUCCGUCUCACCGAGAUCGGAAGAGCACACGU
B15: target 1 insU 3' of 6,insA 3' of 3 (mixed)
RNA 1: CACCCGUGCAAAAAUGCAGGGGUCUAAAACUGAGCGGAUAACCUCUCUAUGG
RNA 2: GGGAAUGGAUCCACAUCUACGAAUUCGUACCAUAGAGAGGUUAUCCUGCUACACCGAGAUCGGAAGAGCACACGU
B16: target 1 insC 3' of 14,insC 3' of 10 (mixed)
RNA 1: CACCCGUGCAAAAAUGCAGGGGUCUAAAACUGAGCGGAUAACCUCUCUAUGG
RNA 2: GGGAAUGGAUCCACAUCUACGAAUUCGUACCAUAGAGACGGUUCAUCCGCUCACCGAGAUCGGAAGAGCACACGU
B17: target 1 C4A,A9C (mixed)
RNA 1: CACCCGUGCAAAAAUGCAGGGGUCUAAAACUGAGCGGAUAACCUCUCUAUGG
RNA 2: GGGAAUGGAUCCACAUCUACGAAUUCGUACCAUAGAGAGGUUCUCCGAUCACCGAGAUCGGAAGAGCACACGU
B18: target 1 insC 3' of 22,insA 3' of 15 (mixed)
RNA 1: CACCCGUGCAAAAAUGCAGGGGUCUAAAACUGAGCGGAUAACCUCUCUAUGG
RNA 2: GGGAAUGGAUCCACAUCUACGAAUUCGUACCCAUAGAGAAGGUUAUCCGCUCACCGAGAUCGGAAGAGCACACGU
B19: target 1 C6U,G13A (mixed)
RNA 1: CACCCGUGCAAAAAUGCAGGGGUCUAAAACUGAGCGGAUAACCUCUCUAUGG
RNA 2: GGGAAUGGAUCCACAUCUACGAAUUCGUACCAUAGAGAAGUUAUCUGCUCACCGAGAUCGGAAGAGCACACGU
B20: target 1 U3G,C4U (mixed)
RNA 1: CACCCGUGCAAAAAUGCAGGGGUCUAAAACUGAGCGGAUAACCUCUCUAUGG
RNA 2: GGGAAUGGAUCCACAUCUACGAAUUCGUACCAUAGAGAGGUUAUCCGUGCACCGAGAUCGGAAGAGCACACGU
B21: target 1 insU 3' of 7,insC 3' of 3 (mixed)
RNA 1: CACCCGUGCAAAAAUGCAGGGGUCUAAAACUGAGCGGAUAACCUCUCUAUGG
RNA 2: GGGAAUGGAUCCACAUCUACGAAUUCGUACCAUAGAGAGGUUAUCUCGCUCCACCGAGAUCGGAAGAGCACACGU
B22: target 1 insU 3' of 9,insU 3' of 4 (mixed)
RNA 1: CACCCGUGCAAAAAUGCAGGGGUCUAAAACUGAGCGGAUAACCUCUCUAUGG
RNA 2: GGGAAUGGAUCCACAUCUACGAAUUCGUACCAUAGAGAGGUUAUUCCGCUUCACCGAGAUCGGAAGAGCACACGU
B23: target 1 C7A,A14U (mixed)
RNA 1: CACCCGUGCAAAAAUGCAGGGGUCUAAAACUGAGCGGAUAACCUCUCUAUGG
RNA 2: GGGAAUGGAUCCACAUCUACGAAUUCGUACCAUAGAGUGGUUAUACGCUCACCGAGAUCGGAAGAGCACACGU
B24: target 1 C2A,A9G (mixed)
RNA 1: CACCCGUGCAAAAAUGCAGGGGUCUAAAACUGAGCGGAUAACCUCUCUAUGG
RNA 2: GGGAAUGGAUCCACAUCUACGAAUUCGUACCAUAGAGAGGUUGUCCGCUAACCGAGAUCGGAAGAGCACACGU
B25: target 1 A1G,U8G (mixed)
RNA 1: CACCCGUGCAAAAAUGCAGGGGUCUAAAACUGAGCGGAUAACCUCUCUAUGG
RNA 2: GGGAAUGGAUCCACAUCUACGAAUUCGUACCAUAGAGAGGUUAGCCGCUCGCCGAGAUCGGAAGAGCACACGU
B26: target 1 insA 3' of 17,insG 3' of 7 (mixed)
RNA 1: CACCCGUGCAAAAAUGCAGGGGUCUAAAACUGAGCGGAUAACCUCUCUAUGG
RNA 2: GGGAAUGGAUCCACAUCUACGAAUUCGUACCAUAGAAGAGGUUAUCGCGCUCACCGAGAUCGGAAGAGCACACGU
B27: target 1 U11C,C22A (mixed)
RNA 1: CACCCGUGCAAAAAUGCAGGGGUCUAAAACUGAGCGGAUAACCUCUCUAUGG
RNA 2: GGGAAUGGAUCCACAUCUACGAAUUCGUAACAUAGAGAGGCUAUCCGCUCACCGAGAUCGGAAGAGCACACGU
B28: target 1 insU 3' of 5,insU 3' of 2 (mixed)
RNA 1: CACCCGUGCAAAAAUGCAGGGGUCUAAAACUGAGCGGAUAACCUCUCUAUGG
RNA 2: GGGAAUGGAUCCACAUCUACGAAUUCGUACCAUAGAGAGGUUAUCCGUCUCUACCGAGAUCGGAAGAGCACACGU

The binders below were run against T1, EsCas13d, nuclease-dead (assay: crRNA (strand 1, pre-loaded); Mg2+; 40 mM Tris-HCl pH 7.5, 150 mM NaCl, 6 mM MgCl2, 1 mM DTT, 0.1% Tween-20, 0.2 mg/ml BSA; 25 C; 10 min per concentration, then washed). Settings: tags: His6-TwinStrep-SUMO cleaved; N-terminal SNAP kept (SNAP-Surface 488); label: 3' end held by stalled T7 RNA polymerase.
B1 was tested, and the Kd was 26.5 ± 2.9 nM. B2 gave a Kd of 63 ± 6 nM. With B3 the Kd was 63 ± 9 nM. B4 showed a Kd of 46 ± 4 nM. With B5 the Kd was 9.4 ± 0.5 nM. B6 was tested, and the Kd was 7.81 ± 0.3 nM. B7 gave a Kd of 13.5 ± 0.9 nM. B8 showed a Kd of 5.5 ± 0.5 nM. For B9, the Kd was 62 ± 8 nM. With B10 the Kd was 59 ± 7 nM. B11 was tested, and the Kd was 12.6 ± 1 nM. B12 was tested, and the Kd was 22.4 ± 1.7 nM. B13 was tested, and the Kd was 37.2 ± 3.2 nM. With B14 the Kd was 29.6 ± 2.1 nM. B15 gave a Kd of 8.07 ± 0.3 nM. B16 was tested, and the Kd was 55 ± 22 nM. With B17 the Kd was 7.1 ± 0.7 nM. B18 was tested, and the Kd was 10.9 ± 0.8 nM. In the case of B19, the Kd is reported as 9 ± 1.1 nM. B20 showed a Kd of 7.2 ± 0.6 nM. B21 showed a Kd of 15.6 ± 0.7 nM. In the case of B22, the Kd is reported as 14.3 ± 1.2 nM. B23 showed a Kd of 39 ± 3.5 nM. For B24, the Kd was 11.7 ± 0.9 nM. B25 showed a Kd of 24.5 ± 1.8 nM. B26 was tested, and the Kd was 11.5 ± 0.6 nM. Work on B27 yielded a Kd of 21.3 ± 1.5 nM. In the case of B28, the Kd is reported as 14.8 ± 1.3 nM.
